As a reminder, the EC50 is the midpoint of the concentration-response curve. A high value points to weaker potency.

Among the targets are αN232Qβγ-ENaC (human) (UniProt P37088); αN511Qβγ-ENaC (human) (UniProt P37088); αR448fsβγ-ENaC (human) (UniProt P37088).
For another assay, the target named is T1, αβγ-hENaC (Homo sapiens, UniProt P37088+P51168+P51170).
T1 construct: expressed in transfected cells; host or cells: HEK-293
T1 sequence (P37088 1-669): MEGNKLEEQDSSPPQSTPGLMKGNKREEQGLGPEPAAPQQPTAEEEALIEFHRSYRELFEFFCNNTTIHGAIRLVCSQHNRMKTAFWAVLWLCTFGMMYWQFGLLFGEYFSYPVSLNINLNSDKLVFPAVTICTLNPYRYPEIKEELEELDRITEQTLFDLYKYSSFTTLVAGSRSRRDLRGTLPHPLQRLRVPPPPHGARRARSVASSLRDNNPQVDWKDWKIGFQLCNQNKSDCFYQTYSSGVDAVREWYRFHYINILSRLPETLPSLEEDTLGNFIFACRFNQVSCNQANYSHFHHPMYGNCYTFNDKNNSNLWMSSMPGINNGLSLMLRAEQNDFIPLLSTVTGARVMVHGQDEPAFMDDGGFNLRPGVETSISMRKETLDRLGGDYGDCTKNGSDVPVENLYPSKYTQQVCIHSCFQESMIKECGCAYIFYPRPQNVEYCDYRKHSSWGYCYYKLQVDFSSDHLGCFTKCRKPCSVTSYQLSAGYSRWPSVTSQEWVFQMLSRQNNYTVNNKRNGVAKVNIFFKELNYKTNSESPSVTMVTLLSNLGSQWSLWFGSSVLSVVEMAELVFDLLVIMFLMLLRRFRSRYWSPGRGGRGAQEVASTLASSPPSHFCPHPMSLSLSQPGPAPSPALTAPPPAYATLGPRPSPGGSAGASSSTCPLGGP
T1 sequence (P51168 1-640 partner): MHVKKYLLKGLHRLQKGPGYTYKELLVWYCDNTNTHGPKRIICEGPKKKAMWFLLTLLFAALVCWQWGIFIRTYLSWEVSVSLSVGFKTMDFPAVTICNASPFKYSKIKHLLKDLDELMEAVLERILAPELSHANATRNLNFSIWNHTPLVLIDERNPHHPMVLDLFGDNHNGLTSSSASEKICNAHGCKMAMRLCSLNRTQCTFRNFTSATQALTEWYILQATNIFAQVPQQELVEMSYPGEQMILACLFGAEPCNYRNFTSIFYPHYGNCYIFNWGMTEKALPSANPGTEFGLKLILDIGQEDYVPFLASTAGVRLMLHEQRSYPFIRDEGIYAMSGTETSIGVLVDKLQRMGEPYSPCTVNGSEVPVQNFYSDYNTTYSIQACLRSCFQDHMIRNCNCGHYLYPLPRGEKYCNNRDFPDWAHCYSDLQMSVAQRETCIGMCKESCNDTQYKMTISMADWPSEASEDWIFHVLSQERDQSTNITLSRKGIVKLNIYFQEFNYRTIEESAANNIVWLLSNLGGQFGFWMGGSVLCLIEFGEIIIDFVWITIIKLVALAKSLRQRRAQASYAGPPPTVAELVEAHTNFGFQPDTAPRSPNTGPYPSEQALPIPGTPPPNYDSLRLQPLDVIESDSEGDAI
T1 sequence (P51170 1-649 partner): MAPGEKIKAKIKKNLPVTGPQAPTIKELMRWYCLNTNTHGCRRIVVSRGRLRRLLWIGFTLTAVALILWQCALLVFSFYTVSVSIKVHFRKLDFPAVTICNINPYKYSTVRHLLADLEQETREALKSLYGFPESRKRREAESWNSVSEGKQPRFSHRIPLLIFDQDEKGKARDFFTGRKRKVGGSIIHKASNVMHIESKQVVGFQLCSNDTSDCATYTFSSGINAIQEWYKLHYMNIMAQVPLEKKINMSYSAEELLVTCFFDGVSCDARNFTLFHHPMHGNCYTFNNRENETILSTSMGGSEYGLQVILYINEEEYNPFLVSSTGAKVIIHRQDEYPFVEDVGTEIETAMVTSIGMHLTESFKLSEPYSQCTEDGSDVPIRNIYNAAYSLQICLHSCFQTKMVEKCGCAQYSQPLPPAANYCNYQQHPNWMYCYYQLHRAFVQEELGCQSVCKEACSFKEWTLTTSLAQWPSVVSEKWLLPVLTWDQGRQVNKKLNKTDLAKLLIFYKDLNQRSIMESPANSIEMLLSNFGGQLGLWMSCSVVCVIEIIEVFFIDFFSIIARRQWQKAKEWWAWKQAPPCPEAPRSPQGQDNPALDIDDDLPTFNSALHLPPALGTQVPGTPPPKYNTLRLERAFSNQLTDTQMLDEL
The assay is described as follows: Whole-cell patch clamp, WT αβγ-hENaC. The class given is cell-based. As to the method: Point mutations of α-, β-, γ- and δ-hENaC and PHA1B frameshift mutations of α-hENaC were prepared with the QuikChange Lightning Site-Directed Mutagenesis Kit (Agilent Technologies, CA, USA). Mutagenic primers were designed individually with the Primer Design Program provided on the producer’s website or for the frameshift mutations the same base changes as reported in patients (see Table 2) were performed. Primers were ordered from Sigma-Aldrich, Vienna, Austria.
(§1) HEK-293 cells were transfected 1 day after cell seeding using X-tremeGENE HP DNA transfection reagent (Roche Diagnostics, Mannheim, Germany) according to the manufacturer’s protocol. A set of WT or mutant αβγ- or δβγ-hENaC, or α-, β-, γ-, or δ-hENaC alone was used, and the ratio of DNA to transfection reagent was 1:3. The expression was highest 48–72 h after transfection.
(§2) Electrophysiological experiments were performed as described in detail by Shabbir et al. ([16]). […] Currents were recorded with the patch clamp method in the whole-cell mode. The chamber contained 1 ml of the bath solution of the following composition (in mM): 145 NaCl, 2.7 KCl, 1.8 CaCl2, 2 MgCl2, 5.5 glucose, and 10 HEPES, adjusted to pH 7.4 with 1 M NaOH solution. Micropipettes were pulled from thin-walled borosilicate glass capillaries (Harvard Apparatus, Holliston, MA, USA) with a DMZ Zeitz Puller to obtain electrode resistances ranging from 2 to 5 MΩ. The pipette solution contained (in millimolars): 135 potassium methane sulfonate, 10 KCl, 6 NaCl, 1 Mg2ATP, 2 Na3ATP, 10 HEPES, and 0.5 EGTA, adjusted to pH 7.2 with 1 M KOH solution. Chemicals for pipette and bathing solutions were supplied by Sigma-Aldrich (Vienna, Austria). Electrophysiological measurements were carried out with an Axopatch 200B patch clamp amplifier (Axon Instruments, CA, USA). Capacity transients were canceled, and series resistance was compensated. Whole-cell currents were filtered at 5 kHz and sampled at 10 kHz. Data acquisition and storage were processed directly to a PC equipped with pCLAMP 10.2 software (Axon Instruments, CA, USA). […]
(In general: In patch-clamp work, channel activity is measured electrically.)

In a further assay the target is T2, α-hENaC (Homo sapiens, UniProt P37088).
T2 construct: expressed in transfected cells; host or cells: HEK-293
T2 sequence (P37088 1-669): T1 sequence (P37088 1-669)
The assay is described as follows: Whole-cell patch clamp, α-hENaC alone. Type of assay: cell-based. The settings on record: TNF, -100 mV, mean ± S.E., n = 5, p < 0.001 vs solnatide. The method, then: as §1
as §2, with “USA).” for “USA). Capacity transients were canceled, and series resistance was compensated. Whole-cell currents were filtered at 5 kHz and sampled at 10 kHz. Data acquisition and storage were processed directly to a PC equipped with pCLAMP 10.2 software (Axon Instruments, CA, USA).”

For another assay, the target named is T3, β-hENaC (Homo sapiens, UniProt P51168).
T3 construct: expressed in transfected cells; host or cells: HEK-293
T3 sequence (P51168 1-640): T1 sequence (P51168 1-640 partner)
Put plainly: Whole-cell patch clamp, β-hENaC alone. The class given is cell-based. The settings on record: TNF, mean ± S.E., n = 5. The method, then: as §1
as §2, with “USA).” for “USA). Capacity transients were canceled, and series resistance was compensated. Whole-cell currents were filtered at 5 kHz and sampled at 10 kHz. Data acquisition and storage were processed directly to a PC equipped with pCLAMP 10.2 software (Axon Instruments, CA, USA).”

Another assay addresses T4, δ-hENaC (Homo sapiens, UniProt P51172).
T4 construct: expressed in transfected cells; host or cells: HEK-293
T4 sequence (P51172 1-638 isoform P51172-1): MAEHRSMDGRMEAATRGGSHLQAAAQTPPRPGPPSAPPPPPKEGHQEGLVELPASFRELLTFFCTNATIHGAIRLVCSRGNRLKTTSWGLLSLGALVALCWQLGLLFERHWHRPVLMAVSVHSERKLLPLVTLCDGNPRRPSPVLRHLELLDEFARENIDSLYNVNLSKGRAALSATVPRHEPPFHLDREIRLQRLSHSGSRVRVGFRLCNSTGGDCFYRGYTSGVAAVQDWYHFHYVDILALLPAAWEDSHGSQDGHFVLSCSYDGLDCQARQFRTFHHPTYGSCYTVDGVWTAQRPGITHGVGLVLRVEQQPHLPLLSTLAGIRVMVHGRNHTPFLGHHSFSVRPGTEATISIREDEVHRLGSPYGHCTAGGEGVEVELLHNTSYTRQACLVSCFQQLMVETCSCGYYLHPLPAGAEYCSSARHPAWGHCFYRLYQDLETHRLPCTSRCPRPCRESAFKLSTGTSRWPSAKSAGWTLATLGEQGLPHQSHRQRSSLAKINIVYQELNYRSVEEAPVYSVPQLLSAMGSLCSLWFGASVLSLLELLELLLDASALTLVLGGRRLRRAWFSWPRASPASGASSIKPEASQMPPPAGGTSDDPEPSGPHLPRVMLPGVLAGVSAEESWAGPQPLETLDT
Put plainly: Whole-cell patch clamp, δ-hENaC alone. The class given is cell-based. The settings on record: TNF, mean ± S.E., n = 5, p < 0.001 vs solnatide. As to the method: as §1
as §2, with “USA).” for “USA). Capacity transients were canceled, and series resistance was compensated. Whole-cell currents were filtered at 5 kHz and sampled at 10 kHz. Data acquisition and storage were processed directly to a PC equipped with pCLAMP 10.2 software (Axon Instruments, CA, USA).”

Assay [1] deals with wild-type αβγ-hENaC (amiloride-sensitive epithelial sodium channel) (human) (UniProt P37088).
For assay [2], the target named is α-hENaC expressed alone (human) (UniProt P37088).
Assay [3] has as its target β-hENaC expressed alone (human) (UniProt P51168).
Assay [4] has as its target γ-hENaC expressed alone (human) (UniProt P51170).
Assay [5] concerns the target δ-hENaC expressed alone (human) (UniProt P51172).

For `N=C(N)NC(=O)c1nc(Cl)c(N)nc1N` [amiloride, reference compound], the “Block of induced current by amiloride” value at αβγ-hENaC (10 µM amiloride, TNF- or solnatide-induced current) is “blocked by 10 µM amiloride within a few pulses”.

“TNF: Tumor necrosis factor (CAS Registry Number 94948-59-1, Sigma-Aldrich, Austria)”: the EC50 with αβγ-hENaC (TNF, amiloride-sensitive Na^+ current, αβγ-hENaC in HEK-293, whole-cell, -100 mV, 19–22°C, bath pH 7.4, cumulative addition, mean ± S.E., n = 5, p < 0.001 vs solnatide) was determined as 6.7 ± 2.1 nM; with α-hENaC it was 4.2 ± 1.9 nM; in the assay with β-hENaC, 18.8 ± 2.9 nM; with δ-hENaC, 5 ± 0.3 nM.

Regarding Tumor necrosis factor (TNF) (ligand), the EC50 of TNF for activating amiloride-sensitive Na+ current, whole-cell patch clamp at -100 mV, transfected HEK-293 cells in [1] was determined as 6.7 nM; in [2], 4.2 nM; in [3], 18.8 nM; in [5] it was 5 nM. Moreover, the maximal TNF-induced amiloride-sensitive Na+ current, whole-cell patch clamp at -100 mV, transfected HEK-293 cells in [1] turned out to be 162 pA; in assay [2] it was 48.1 pA; in [3], 18.5 pA; in assay [4], 8 pA; in [5], 27.8 pA. Also, the maximal TNF-induced current, whole-cell patch clamp, transfected HEK-293 cells with αN232Qβγ-ENaC (human) worked out at 84.7 pA; in the assay with αN511Qβγ-ENaC (human) it was 50.7 pA. Besides, in the assay with αR448fsβγ-ENaC (human), the fold increase of current (TNF-induced/amiloride-sensitive current), whole-cell patch clamp, transfected HEK-293 cells turned out to be 3.5 fold.

The record behind these values is paper PMC5447021, “TNF Lectin-Like Domain Restores Epithelial Sodium Channel Function in Frameshift Mutants Associated with Pseudohypoaldosteronism Type 1B” (Frontiers in Immunology, 2017).
